Earlier results, collected in paper PMC9371363.

Assays:
[1] = target: IL-4Rα (Homo sapiens) (UniProt P24394)
[2] = target: IL-13Rα2 (Homo sapiens) (UniProt Q14627)
UniProt Q14627, sequence (Q14627 27-343): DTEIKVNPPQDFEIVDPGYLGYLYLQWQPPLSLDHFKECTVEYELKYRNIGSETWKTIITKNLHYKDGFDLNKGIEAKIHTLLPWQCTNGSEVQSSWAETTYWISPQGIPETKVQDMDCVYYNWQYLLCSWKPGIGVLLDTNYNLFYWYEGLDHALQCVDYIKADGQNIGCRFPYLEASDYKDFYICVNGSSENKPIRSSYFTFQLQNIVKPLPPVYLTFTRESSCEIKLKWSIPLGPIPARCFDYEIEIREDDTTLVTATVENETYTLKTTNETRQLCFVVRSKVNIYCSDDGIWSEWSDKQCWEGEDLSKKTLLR

UniProt P24394, sequence (P24394 26-232): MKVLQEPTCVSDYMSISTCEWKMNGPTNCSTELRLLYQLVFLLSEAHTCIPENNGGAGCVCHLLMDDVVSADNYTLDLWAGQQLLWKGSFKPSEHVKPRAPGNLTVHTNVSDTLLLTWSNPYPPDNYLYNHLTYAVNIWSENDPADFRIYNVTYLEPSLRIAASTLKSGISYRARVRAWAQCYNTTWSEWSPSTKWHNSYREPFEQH

Kd [1] | Kd [2] | Substance
100 pM | – | IL-4 (from UniProt P05112)
– | < 0.001 pM | IL-13 (from UniProt P35225)
